# Biological target: pertussis toxin (Bordetella pertussis) (UniProt P04977)
# Experiment: ELISA, plate coated with pertussis toxin, antibody titrated, detection with goat anti-human kappa constant domain-HRP [panel C]
substance,measurement,value
hu1B7-YTE extended half-life antibody,EC50 (read off the curve),0.04 µg/mL
